Results: patent publication US20110003880A1, “Compositions and methods for inhibiting optic nerve damage” (priority 2006, published 2011)

Assays:
PAD 2 = assay: Modulation of intracellular calcium and PAD 2 expression in pressure treated astrocytes; type: cell-based, rat; settings: astrocytes subjected to 40 mm Hg for 5 hours; 50-200 nM
Description: FIGS. 9A-9B. Modulation of intracellular calcium concentration and PAD 2 expression. The astrocytes were subjected to 40 mm Hg for 5 hours and restored to normal pressure except controls. Pressure treated cells were subjected to (FIG. 9A) indicated concentrations of BAPTA-AM for 24 hours or (FIG. 9B) indicated concentrations of Thapsigargin. Total protein were extracted and transferred on PVDF membrane after SDS-PAGE separation and probed with antibodies to PAD 2 and GPDH, secondary antibodies coupled with IR-700 dye allowed scanning and detection.
Astrocytes from Sprague Dawley rats (Harlan, Indianapolis, Ind.) brain cortex were used for these studies. Mixed glial cell suspensions were prepared from the P3 rat cortex regions following published procedures (Fuss, B., et al., Dev Biol., 218:259-74 (2000)) from which enriched GFAP positive cells were obtained using immunopanning (Yang, P., et al., Brain Res Brain Res Protoc. 12:67-76 (2003)). The astrocytes were exposed to a pressure of 40 mm of Hg for five hours (Yang, J. L., et al., Exp Eye Res. 56:567-74 (1993); Salvador-Silva, M., et al., Glia. 45:364-77 (2004)). Briefly, the cells plated in six well plates (Costar, Cambridge, Mass., USA) at a density of 3-10×10^3 cells/well and grown to semiconfluence in 2 days were incubated with serum free medium overnight. […]

PAD2 [1] = assay: Anti-PAD2 Western analysis of optic nerve from glaucomatous donors; type: in vivo, human; settings: 85M POAG donor, trabeculectomy plus verapamil; compared with other POAG eyes (86M and 76F)
Description: FIGS. 5A-5D. Elevated level of PAD2 and citrulline in response to pressure. […] Protein extracted from the optic nerve of cadaver Caucasian donor eyes, age and gender are as indicated. All glaucomatous donors suffered elevated IOP and were subjected to surgical intervention except the 76F donor. The 85M donor also received verapamil, a calcium modulator. FIG. 5B, Representative Western analyses with anti-PAD2 of rat brain astrocytes subjected to 40 mm Hg pressure for 5 h then returned to atmospheric pressure for up to 4 days as indicated. FIG. 5C, Representative Western analysis with anti-citrulline of protein extracts (5 μg) from astrocytes subjected to elevated pressure as in FIG. 5B. […]
For these analyses previously described mouse monoclonal antibody (mAb) against PAD2 (Koike, H., et al., Biosci Biotechnol Biochem. 58:2286-7(1994); Koike, H., et al., Biosci Biotechnol Biochem. 59:552-4(1995)) was used. […] For quantitative Western analyses, anti-mouse and anti-rabbit secondary antibody linked to 700 nm or 800 nm IR-dyes were used on an Odyssey Infrared Imaging system according to the manufacturer (Li-Cor Biosciences, Lincoln, Neb.). […]
Other donor eyes that had undergone either surgical or combined surgical and pharmacological intervention to relieve elevated IOP were also analyzed for PAD2. […]

PAD2 [2] = type: cell-based, rat
Description: Astrocytes from Sprague Dawley rats (Harlan, Indianapolis, Ind.) brain cortex were used for these studies. Mixed glial cell suspensions were prepared from the P3 rat cortex regions following published procedures (Fuss, B., et al., Dev Biol., 218:259-74 (2000)) from which enriched GFAP positive cells were obtained using immunopanning (Yang, P., et al., Brain Res Brain Res Protoc. 12:67-76 (2003)). The astrocytes were exposed to a pressure of 40 mm of Hg for five hours (Yang, J. L., et al., Exp Eye Res. 56:567-74 (1993); Salvador-Silva, M., et al., Glia. 45:364-77 (2004)). Briefly, the cells plated in six well plates (Costar, Cambridge, Mass., USA) at a density of 3-10×10^3 cells/well and grown to semiconfluence in 2 days were incubated with serum free medium overnight. A closed pressurized chamber (5% carbon dioxide) equipped with a manometer was used to subject the cells to elevated pressure. Cells were placed in the chamber and the pressure was elevated to 40 mm Hg. The chamber was subsequently placed in a tissue culture incubator at 37° C. Control cells from identical passage of cell lines were simultaneously incubated in a tissue culture incubator at atmospheric pressure at 37° C. The cells were incubated for 5 h or 1-4 days after pressure treatment. After incubation, cells were trypsinized and subjected to culture or Western analyses. For culture, the cells were plated on a cover slip and allowed 16 hours recovery period and subjected to immunohistochemistry using mouse monoclonal PAD2 and rabbit polyclonal GFAP antibodies. The cells were permeabilized with 200 μl of 0.2% Triton X-100 in phosphate buffer saline pH 7.5 for 1 hour after fixation with 4% paraformaldehyde for 1 hour. Western analyses were performed using antibodies to PAD2 and citrulline as described above.
For treatment of rat cortex astrocytes, shRNA against PAD2 (OpenBiosystems, Cat. #RHS 1764-9214220) was procured from OpenBiosystems in pShag Magic version 2.0 vector (OpenBiosystems). This shRNA contains the sequence (5′[…]′3) (SEQ ID NO: 7) from the coding region of PAD2 (see FIG. 14). For a negative control, we used a non-silencing shRNA sequence cloned into pShag Magic 2.0 (OpenBiosystems, cat. #RHS1703) from OpenBiosystems verified to contain no homology to known mammalian genes. About 30% confluent cells (3000 primary astrocytes) (Lee, J. H., et al., Glia., 50:66-79 (2005)) were transfected using SuperFect transfection reagent, purified vector (5 μg) DNA (Qiagen, Valencia, Calif.) and the manufacturer's recommended protocols. The post transfected astrocytes were selected on geneticin (10 μg/μl). The primary astrocytes were subjected to pressure (40 mm of Hg) and transfected with shRNA on plates immediately after they were brought to normal atmospheric pressure.

[3] = astrocytes subjected to 40 mm Hg, transfected with shRNA immediately after return to atmospheric pressure, vs non-specific shRNA

For CC(=O)OCOC(=O)CN(CC(=O)OCOC(C)=O)c1ccccc1OCCOc1ccccc1N(CC(=O)OCOC(C)=O)CC(=O)OCOC(C)=O [BAPTA-AM], the “expression of PAD 2 protein (Western)” value (PAD 2) was “reduces expression of PAD 2 protein”.

In the case of C/C=C(/C)C(=O)O[C@H]1C(C)=C2[C@H]([C@@H]1OC(=O)CCCCCCC)[C@@](C)(OC(C)=O)C[C@H](OC(=O)CCC)[C@@]1(O)[C@H]2OC(=O)[C@@]1(C)O [Thapsigargin], the “expression of PAD 2 protein (Western)” value (PAD 2) is reported as “seems not to show a great increase in PAD 2 expression”.

In the case of COc1ccc(CCN(C)CCCC(C#N)(c2ccc(OC)c(OC)c2)C(C)C)cc1OC (centres unmarked) [verapamil], the “optic nerve PAD2 level (Western, relative to GPDH)” value (PAD2 [1]) is reported as “appeared lower”.

B1: PAD2 specific shRNA: shRNA against PAD2 (OpenBiosystems, Cat. #RHS 1764-9214220) in pShag Magic version 2.0 vector, SEQ ID NO: 7 (nucleic acid)
chain: TGCTGTTGACAGTGAGCGACAGCCTTGACTCATTTGGAAATAGTGAAGCCACAGATGTATTTCCAAATGAGTCAAGGCTGGTGCCTACTGCCTCGGA
With B1 the “Differences in cell morphology due to reduction in mRNA” value (PAD2 [2]) was “not observed”, the “PAD2 expression (anti-PAD2 Western analysis)” value (PAD2 [2]; [3]) was “reduced PAD2 expression” and the “citrullination (anti-citrulline Western analysis)” value (PAD2 [2]; [3]) was “reduced citrullination”. The “PAD 2 by immunohistochemical analysis” value (PAD2 [2]; isolated astrocytes, 5 hours or 4 days at atmospheric pressure after 40 mm Hg, compared to untreated group) was “reduced” and the “PAD2 mRNA (Northern analysis of total RNA)” value (PAD2 [2]; pressure treated astrocytes transfected with shRNA, within the sensitivity of detection) was “completely removed”.
